Data as given in patent US20070178098A1.

Tests used:
[1] = target: Fc-IL6Ralpha-IL6 (human IL-6Ralpha and IL-6; mouse Fc); assay: cell-based or functional assay
human IL-6 (human) = human IL-6 (human) (UniProt P05231); assay: cell-based or functional assay
Chain of human IL-6 (human) (P05231 30-212 limits assumed): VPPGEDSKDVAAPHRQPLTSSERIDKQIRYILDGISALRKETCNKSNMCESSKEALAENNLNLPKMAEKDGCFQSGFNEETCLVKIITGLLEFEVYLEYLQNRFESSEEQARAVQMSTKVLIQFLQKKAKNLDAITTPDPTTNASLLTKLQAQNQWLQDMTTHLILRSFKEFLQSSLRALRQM

Chain of Fc-IL6Ralpha-IL6 (human IL-6Ralpha and IL-6; mouse Fc) (chain, as listed by the source limits assumed): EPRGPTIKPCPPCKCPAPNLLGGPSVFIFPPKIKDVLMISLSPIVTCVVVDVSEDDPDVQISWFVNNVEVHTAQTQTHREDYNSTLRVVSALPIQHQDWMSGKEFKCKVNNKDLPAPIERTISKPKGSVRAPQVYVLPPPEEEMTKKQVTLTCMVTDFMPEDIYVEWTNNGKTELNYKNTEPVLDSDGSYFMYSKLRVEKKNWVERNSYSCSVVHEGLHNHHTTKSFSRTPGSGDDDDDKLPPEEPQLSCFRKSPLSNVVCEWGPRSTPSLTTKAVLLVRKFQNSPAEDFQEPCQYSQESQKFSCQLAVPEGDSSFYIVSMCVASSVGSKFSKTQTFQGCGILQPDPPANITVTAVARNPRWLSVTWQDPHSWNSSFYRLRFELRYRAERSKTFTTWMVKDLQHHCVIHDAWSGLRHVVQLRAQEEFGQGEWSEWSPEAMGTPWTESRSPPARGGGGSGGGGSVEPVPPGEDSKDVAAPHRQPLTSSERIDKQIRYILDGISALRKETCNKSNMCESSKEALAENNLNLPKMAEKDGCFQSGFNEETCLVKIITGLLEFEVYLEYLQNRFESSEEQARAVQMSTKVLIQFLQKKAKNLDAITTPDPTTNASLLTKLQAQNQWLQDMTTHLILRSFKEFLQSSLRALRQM

- 8 Hours % Inhibition of haptoglobin secretion in mice given Fc-IL6Rα-IL6 [1]: 12%
- 24 hours % Inhibition of haptoglobin secretion in mice given Fc-IL6Rα-IL6 [1]: -3%
- Haptoglobin Inhibition IC50 (HepG2 cells stimulated with IL-6Rα-IL-6) [1]: > 0.333 µg/mL
- LP-1 Proliferation IC50 (stimulated with Fc-IL6Ralpha-IL6) [1]: 1.61 µg/mL
- Haptoglobin Inhibition IC50 (HepG2 cells stimulated with IL-6) (human IL-6 (human)): 0.00519 µg/mL
- LP-1 Proliferation IC50 (stimulated with IL-6) (human IL-6 (human)): 0.0101 µg/mL
B1: CNTO-328 (antibody, INN chains, looked up, V domains shown)
VH: EVQLVESGGKLLKPGGSLKLSCAASGFTFSSFAMSWFRQSPEKRLEWVAEISSGGSYTYYPDTVTGRFTISRDNAKNTLYLEMSSLRSEDTAMYYCARGLWGYYALDYWGQGTSVTVSS
VL: QIVLIQSPAIMSASPGEKVTMTCSASSSVSYMYWYQQKPGSSPRLLIYDTSNLASGVPVRFSGSGSGTSYSLTISRMEAEDAATYYCQQWSGYPYTFGGGTKLEIK
